According to the DeepSol protein solubility set:

experiment: soluble on expression in E. coli; label from the status in PepcDB or PDB records

| Sequence | soluble on expression in E. coli |
| --- | --- |
| MRPSSRSAGRRTSMRLTTRDFDRTGRPLRFTELGFGSSPLGNLYRAISEEEAQALLERAWAGGIRYFDTAPLYGYGLAEERLGRFLAGHPRSDYVLSTKVGRLLRPVEPGEARDGLGKFFEVPERKERFDYGYDGVMRSLEASLDRLGLDRVDVLYAHDLDLFTHGSQEALEARLAEFMAGGYRALVELRDQGVISAFGAGVNEWQPCQWLAERGEFDLFLLAGRYTLLEQEALESFLPLAEERGIGIVIGGPYNSGVLATGPKPGSFYDYRLAPQAVLDRVAQIHTICERWGVRMFEAAFQFPLRHPAVLSVIPGPQSVGEVMENRIAADAELPPGLWEDLKVAGLLRPDAPV | not soluble |
| MGSDKIHHHHHHVVVFCGMGTLGPSFPEVPWLRLGVMSTDPKPGAEHPHEVENLDNHECWRLLRSVSVGRLAVWVEDHPDIFPINYKVDHGTLVFRTADGTKLQAATGDTPVAVEADGVDADSGVAWSVVIKGQAAPVKNQQEVLDTVGLLLFPWQAGKKEHFVRITPDTVTGRRFKVTPPLTWWTPLDDATRSGFE | not soluble |
| MGSDKIHHHHHHMNVLLSRKDTIRFLILSELMVNPECNQRDIAKKLGLTPQAISEHFKEMVSEGFINVVHKGYYEVTRKGEEWMSRNLIDLHLFSEELLKKIYSKTVVAIAKGRIAENDSVRYWFGDGYIFAERSAKGNGVALTSAEDGEDVLIKPTGSFEPPEKGEIIIVKVPGVAEGGSRKVDLDSFRELVKSRPTSIVVAIGIEALVTCRKIRVEPIFFGAKEVCIEAAHHGSGVIVACTESMLNDLLRSLIDEGLEFEIKEFVKAT | not soluble |
| MAHHHHHHMENIKLGFMGLGQMGSALAHGIANANIIKKENLFYYGPSKKNTTLNYMSSNEELARHCDIIVCAVKPDIAGSVLNNIKPYLSSKLLISICGGLNIGKLEEMVGSENKIVWVMPNTPCLVGEGSFIYCSNKNVNSTDKKYVNDIFNSCGIIHEIKEKDMDIATAISGCGPAYVYLFIESLIDAGVKNGLSRELSKNLVLQTIKGSVEMVKKSDQPVQQLKDNIVSPGGITAVGLYSLEKNSFKYTVMNAVEAACEKSKAMGSK | soluble |
| MPKSLYNYHEFIHLSHDGRIPFEKIEVPKNAILLNNSADLDNYVYLIIDGYVALFLNDGKEQPKIYSIQGEGAFLNYFTLLDHSINRFRYKTLSKCFLYRYSKLDIEYFLSMFPENFGFQFFIMKNQTTHIYFKSLMASSPASEKLMLTFSNLARLHGIPTEDDTVILPPAIKTSHLLSYSNLSKSCFYKDLQYLKTTNQIEKQDNSWIIHNKELNLMLQNGETYI | not soluble |
| DAAKSHAPVVRSMEASLSPELKRELSDGIECIGIGGGDLHTRIVWTQYGTLPHRVGDVQCRYRIVLLPQNADAPQGWQTVWQGARPRNKDSKFALIRKIGENI | not soluble |
| MSLILVTGAAGFIGSHLCEQLLMNEKVSVVGVDGHIDSSLCKVKERNVRNLLKHPRFTLLKQDLLTIDLEPLVDQVDVIYHLSGIPGVRSSWGTDFKKYVTHNIVATQQLLEACRRHSLEKFIYISTSSVYGQKNGKVGEKASPTPLSPYGVSKLTGEHLCNVYYRNFSIPTVILRYFTVYGPRQRQDMAFHRFIKAIIDNQPIPIFGDGNQSRDFTYIDDCIAATCAVLHADVIGETINIGGKERATVLQIISMLESIFQKDAKLQFLEKPFGEPMSTWADISKAEKLLRYSPNVPLLQGIEKEVDEGHHHHHH | soluble |
| MAHHHHHHMPLPPVESGPAAMTRRNFLVEMNRLRVSQYMPTRKQLEEEDLRIATIRQEEKRAKHAEWAESRRKAADSYNAAGTNSGRPLPGSVSRSMRASGKGKPAENTYKLEKEEEAAKKREYNRLYEQEAKHQLAIRQATLKQMHDDEVRQMEALRKVNEEEDRKVAEAHAQAMEEERQYMERLKQSNKRELAARKAEQQAKEARDRQLQELVNENNRHRAEMDERRLKNVTRMLHLQNEQFHREAMMSKKASEAKHYEEVAATEERNRRLTKEEQEAAQRKKEQFRQDFEDCIARDKEFRRTHNYDEPMEVTRQRNELAAQSYRLVLEEERLQNAERRQQYRKDLMDQIMAKQTYRMTHLDEAGI | not soluble |
| MPTVSVKRDLLFQALGRTYTDEEFDELCFEFGLELDEITSEKEIISKEQGNVKAAGASDVVLYKIDVPANRYDLLCLEGLVRGLQVFKERIKAPVYKRVMPDGKIQKLIITEETAKIRPFAVAAVLRNIKFTKDRYDSFIELQEKLHQNICRKRALVAIGTHDLDTLSGPFTYTAKRPSDIKFKPLNKTKEYTACELMNIYKTDNHLKHYLHIIENKPLYPVIYDSNGVVLSMPPIINGDHSRITVNTRNIFIECTGTDFTKAKIVLDIIVTMFSEYCENQFTVEAAEVVFPNGKSHTFPELAYRKEMVRADLINKKVGIRETPENLAKLLTRMYLKSEVIGDGNQIEIEIPPTRADIIHACDIVEDAAIAYGYNNIQMTLPKTYTIANQFPLNKLTELLRHDMAAAGFTEALTFALCSQEDIADKLGVDISATKAVHISNPKTAEFQVARTTLLPGLLKTIAANRKMPLPLKLFEISDIVIKDSNTDVGAKNYRHLCAVYYNKNPGFEIIHGLLDRIMQLLDVPPGEDKGGYVIKASEGPAFFPGRCAEIFARGQSVGKLGVLHPDVITKFELTMPCSSLEINIGPFL | soluble |
| MVSFKAGINLGGWISQYQVFSKEHFDTFITEKDIETIAEAGFDHVRLPFDYPIIESDDNVGEYKEDGLSYIDRCLEWCKKYNLGLVLDMHHAPGYRFQDFKTSTLFEDPNQQKRFVDIWRFLAKRYINEREHIAFELLNEVVEPDSTRWNKLMLECIKAIREIDSTMWLYIGGNNYNSPDELKNLADIDDDYIVYNFHFYNPFFFTHQKAHWSESAMAYNRTVKYPGQYEGIEEFVKNNPKYSFMMELNNLKLNKELLRKDLKPAIEFREKKKCKLYCGEFGVIAIADLESRIKWHEDYISLLEEYDIGGAVWNYKKMDFEIYNEDRKPVSQELVNILARRKT | soluble |
| MKPRVEILMSTYNGEKFLAEQLDSILAQTHQYFVLTVRDDGSKDGTPDILSRYAATDERITYCVQENRGVVGSFYWLLKNSSPLSNYVAFSDQDDVWLPNKLERALDVLSRYDETLPLLYCSRVEYVSAGLGHLDDSPMMVRPVCLNNALIQNVATGCTVVMNKAARDLLLEREWPPQVLMHDWWSYIVVSAFGKVVYDDFVSIKYRQHGGNVIGGTVSFVSDYRSRIINFLSRRRKGVFGCYDQAYSFWLGYKDELKGESRGIVSQFIESKRSFLSRLNYLTSSQRVYRHRFIDDVLVRLLILSNKYLEHHHHHH | not soluble |
| SNAMKRSIEDTPIVLIGAGNLATNLAKALYRKGFRIVQVYSRTEESARELAQKVEAEYTTDLAEVNPYAKLYIVSLKDSAFAELLQGIVEGKREEALMVHTAGSIPMNVWEGHVPHYGVFYPMQTFSKQREVDFKEIPFFIEASSTEDAAFLKAIASTLSNRVYDADSEQRKSLHLAAVFTCNFTNHMYALAAELLKKYNLPFDVMLPLIDETARKVHELEPKTAQTGPAIRYDENVIGNHLRMLADDPAMQRLYELLSRSIHERQ | soluble |
| MAHHHHHHMASGCLKYASVDDFIAKCILSRDPYQPEFTQAVREVMTSLWPFLQKNPKYTQDGLLERIVEPERVIQFRVPWVDDKGVTHVNRAFRVQFNSAIGPYKGGMRFHPSVNLSILKFLGFEQTFKNSLTTLPMGGGKGGADFDPKGKSDCEVMRFCQSLVAELYRHIGADTDVPAGDIGVGSREVGYMNGMYWKLRNTNECTFTGKGLAFQGSAIRPEATGYGLVYFVQSMLTHVNDSLEGKTVLVSGSGNVAQYAIEKCMELGAKVITASDSKGYIQDPSGFDKVKLAKLMKLKNECRGTLEEYARETGVTYVPGKRPWCVKADIALPCATQNEIEGADAKTMLTNGVKLVAEGANMPTTEEATEIFQKAGVLFAPGKASNAGGVAISGLEMSQNAARLVWDAEEVDSRLRSIMSSIHDSCVQYGEKDGKVSYVDGANIAGFACFLRRRTFATRVSPVHQVLCT | soluble |
| MKNVVIHQIVTLIFTEDQLRAYWQKQESTVPFAALTDAQYMKLAEDMLAHSSHSQLEQHLLGGRWRTKEEAEGAVLAEDESRDDIHVEIIDTNAPAEPRRRMLIDRVREILCPHCSFTFYVREAASERRDWTCPACGSGFCDLTP | not soluble |
| MSLSAKSSLKEVAELAGVGYATASRALSGKGYVSPQTREKVQAAAKELNYVPNQLAKALREHRSALVGVIVPDLSNEYYSESLQTIQQDLKAAGYQMLVAEANSVQAQDVVMESLISIQAAGIIHVPVVGSIAPEGIPMVQLTRGELGPGFPRVLCDDEAGFFQLTESVLGGSGMNIAALVGEESLSTTQERMRGISHAASIYGAEVTFHFGHYSVESGEEMAQVVFNNGLPDALIVASPRLMAGVMRAFTRLNVRVPHDVVIGGYDDPEWYSFVGAGITTFVPPHEEMGKEAVRLLVDLIENPELPTGDVVLQGQVILRGSSTHEGHHHHHH | soluble |
| EVKLLESGGGLAQPGGSLKLSCAASGFDFRRYWMTWVRQAPGKGLEWIGEINPDSRTINYMPSLKDKFIISRDNAKNSLYLQLSRLRSEDSALYYCVRLDFDVYNHYYVLDYWGQGTSVTVSSASTKGPSVFPLAPSSKSTSGGTAALGCLVKDYFPEPVTVSWNSGALTSGVHTFPAVLQSSGLYSLSSVVTVPSSSLGTQTYICNVNHKPSNTKVDKKVEPKSCD | soluble |
| YTSLIRRVEHAVDSDGSFETGNEVKLSGVGVIGTDERFERVGETYASYYGYESEELVGKHWSELHPSNEVQHIRTHVIPAVRSGGKWTGQSKGLRADETTFTESKMVTALEDGRMLIAVDEIDDSGLAE | not soluble |
| MSRHPLKIVIAGAGIGGLAAAACLKAAGFEVELYERARELRAVGSALSLMPNALTALERVGVRPDLTRAQAFDSLRFLTRRGRPIRAIDFGGLARQLGQPSLAIHRASLQQALLEQARDCRIELGVSATGYLRHADGEGVTVLCSDGREVHADVLIGADGFNSAIRATMTGPERPTDWHYVIWRATPAFRHPKVTPGYVAHYWGRGQRFGLADIGEGNVYWWGTRNMPAEQAKDWRGGKAGIQRLYAGWADEVQAVIEATPEADISSLPAQDRPFLERWGDGPVTLLGDAAHPMLTSLGQGAAIAIEDAAVLAHCLATIDDPQAALRAYENRRRDRARAMVETSRALSRIEQLEHPLRTVARDLYFRFAPERTFARQNELALTFPGVELEHHHHHH | not soluble |
| MREMTADPYLGKYITCVSARSTDKEILKKAQDGGIATALMVYALEEGIIDGTIVAGEGDRPWEPRPIVAMSREDILKARGTKYSISPQIAWLKEATRSFGLDKVGVTGVCCQMQAVRKAQLYPINMRDVPGKVALTVGLFCMENFPYKSLQTIVEDHAAQSLGSVKKMEITKGKFWVHTERGNVSTVPLKATHKYEQPGCHVCLDYVSSLADISTGSVGSPDGWSTVFIRTKKGNEVWSKAVAAGMFETKPIEDVKPGLELLTKLAKEKIDKNRKTLEERRNFGVNKALRDPYAAAALEHHHHHH | not soluble |
| MMSVPQAREARRIDLGEMGWGEVQVDFYNPLVKRREIVMILHHELKPTPMRIMLRQKLAEVLGVDIKRIYIRYIKTGYGAGLSKVRVHVYDSPERALSFEPKYIIERNGGVNPFEEAEG | soluble |
| MGEKLLMKGNEAIAEAALRAGCRHYFGYPITPQTEIAHYLAKKMPEVGGTFIQAESEVAAINMVYGAASAGARVLTSSSSPGISLKQEGLSYLAGAELPAVVVNIVRCGPGLGGILPAQGDYFQAVKGGGHGDYKMVVLAPSSVQELYELTVEAFNIADRYRIVSMIMGDGILGQMMEAVEFKDVENIEKIDKPWATTGTQMKREHNTITSIYIQPEVLEKHNQKLQAKYRLIEERETRVESYNCENADIIVTAFGTVARIVKNVIKMAEKEGIKVGLIRPITLWPFPTKEYEKYADVPKAFLTVELNAGQMVEDVRLAVNGKKPVYFHGRMGGMIPTQKEILDKIKEILNN | not soluble |
| GSHMSHLDNTMAIRLLPLPVRAQLCAHLDALDVWQQLATAVKLYPDQVEQISSQKQRGRSASNEFLNIWGGQYNHTVQTLFALFKKLKLHNAMRLIKDYVSEDLHKYI | soluble |
